From publication PMC2679210, “Dpr Acts as a Molecular Switch, Inhibiting Wnt Signaling when Unphosphorylated, but Promoting Wnt Signaling when Phosphorylated by Casein Kinase Iδ/ε” (PLoS ONE, 2009) come the findings set out here.

In this test the target is T1, Myc-tagged XDpr1a phosphorylated by CKIδ (Xenopus, UniProt Q8QG92 1-824, phosphorylated by CKIδ; sites not told).
T1 construct: Xenopus Dapper1a (XDpr1a), as m1; also called phosphorylated XDpr1a; XDpr1a in the presence of CKIδ
T1 sequence (looked up): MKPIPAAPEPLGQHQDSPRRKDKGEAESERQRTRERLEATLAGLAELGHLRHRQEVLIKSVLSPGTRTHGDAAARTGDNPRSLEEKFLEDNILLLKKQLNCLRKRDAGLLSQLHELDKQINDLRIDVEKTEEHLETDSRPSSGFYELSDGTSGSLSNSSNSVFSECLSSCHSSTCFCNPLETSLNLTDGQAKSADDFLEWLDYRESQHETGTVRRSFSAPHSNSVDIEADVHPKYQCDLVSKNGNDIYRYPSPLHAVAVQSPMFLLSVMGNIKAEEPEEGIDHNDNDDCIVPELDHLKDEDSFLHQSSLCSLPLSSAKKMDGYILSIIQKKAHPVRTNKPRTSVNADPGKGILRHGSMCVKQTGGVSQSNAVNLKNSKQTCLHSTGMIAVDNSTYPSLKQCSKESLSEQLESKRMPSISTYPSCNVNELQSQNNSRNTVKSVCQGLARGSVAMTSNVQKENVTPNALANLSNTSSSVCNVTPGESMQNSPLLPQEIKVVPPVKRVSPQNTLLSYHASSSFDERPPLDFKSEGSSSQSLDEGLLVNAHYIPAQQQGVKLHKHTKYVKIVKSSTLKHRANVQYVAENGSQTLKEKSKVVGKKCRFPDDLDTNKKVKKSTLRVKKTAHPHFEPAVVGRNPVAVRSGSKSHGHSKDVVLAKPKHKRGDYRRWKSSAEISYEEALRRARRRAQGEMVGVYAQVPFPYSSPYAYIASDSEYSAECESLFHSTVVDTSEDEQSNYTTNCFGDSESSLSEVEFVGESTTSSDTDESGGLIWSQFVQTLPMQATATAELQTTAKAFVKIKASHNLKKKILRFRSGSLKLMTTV
Description: co-IP; in vitro coimmunoprecipitation: [35S]methionine-labeled Myc:XDpr1a immunoprecipitated with anti-Myc antibodies and protein A agarose, 2 hours at room temperature, from a reaction containing HA-tagged XDsh in the absence or presence of CKIδ; washed three times with 50 mM Tris-HCl pH 7.4, 137 mM NaCl; SDS-PAGE, autoradiography, PhosphorImager quantitation (n = 4 trials). The note with it: partners not purified.

B1: HA-tagged XDsh phosphorylated by CKIδ (natural protein, Xenopus, UniProt P51142 1-736, looked up)
chain: MAETKVIYHLDEEETPYLVKVPVPATDIRLRDFKAALGRGHAKYFFKAMDQDFGVVKEEISDDNAKLPCFNDRVVSWLASSEGSQPDSAPPAPATEVRPEPPPPVPPPIPPPPAERTSGIGDSRPPSFHPNVSGSTEQLDQDNESVISMRRDRVRRRESSEQAGVGRGVNGRTERHLSGYESSSTLLTSEIETSICDSEEDDTMSRFSSSTEQSSASRLLKRHRRRRKQRPPRLERTSSFSSVTDSTMSLNIITVTLNMEKYNFLGISIVGQSNERGDGGIYIGSIMKGGAVAADGRIEPGDMLLQVNDINFENMSNDDAVRVLRDIVHKPGPIVLTVAKCWDPSPQGYFTLPRNEPIHPIDPAAWVSHSAALSGSFPVYPGSASMSSMTSSTSVTETELSHALPPVSLFSLSVHTDLASVVKVMASPESGLEVRDRMWLKITIPNAFLGSDVVDWLYHHVEGFQDRREARKFASNLLKAGFIRHTVNKITFSEQCYYIFGDLTGCENYMTNLSLNDNDGSSGASDQDTLAPLPLPGASPWPLLPTFSYQYQAPHPYSTQPPAYHELSSYSYGMGSAGSQHSEGSRSSGSNRSDGGRGMQKDDRSGVAGVGGGDSKSGSGSESEYSTRSSIRRVGGGEAGPPSERSTSSRLPPHHPPSVHSYAAPGVPLSYNPMMLMMMPPPPLPPPGVCPPNSSVPPGAPPLVRDLASVPPELTATRQSFHMAMGNPSEFFVDVM
modifications: phosphorylated by CKIδ; sites not told
notes: Xenopus disheveled (XDsh), as m2; also called phosphorylated XDsh; XDsh in the presence of CKIδ
As for B1, the “coimmunoprecipitation relative to the control without CKIδ” value was ~0.5 relative to no CKIδ (1.0).
